This passage reports binding result and Kd results from article PMC11077089, “Molecular basis of A. thaliana KEOPS complex in biosynthesizing tRNA t6A”.

In general, Kd refers to the concentration at which binding is half-saturated.

Substitutions are numbered along the chain they refer to.

For data set [1], the target named is T1, KAE1 I17F;BUD32;CGI121;PCC1 (Arabidopsis thaliana;Arabidopsis …, UniProt O49653;Q94K14;Q6NMZ4;Q8GWD7 1-353;1-226;1-172;1-96, I17F|||).
T1 sequence 1: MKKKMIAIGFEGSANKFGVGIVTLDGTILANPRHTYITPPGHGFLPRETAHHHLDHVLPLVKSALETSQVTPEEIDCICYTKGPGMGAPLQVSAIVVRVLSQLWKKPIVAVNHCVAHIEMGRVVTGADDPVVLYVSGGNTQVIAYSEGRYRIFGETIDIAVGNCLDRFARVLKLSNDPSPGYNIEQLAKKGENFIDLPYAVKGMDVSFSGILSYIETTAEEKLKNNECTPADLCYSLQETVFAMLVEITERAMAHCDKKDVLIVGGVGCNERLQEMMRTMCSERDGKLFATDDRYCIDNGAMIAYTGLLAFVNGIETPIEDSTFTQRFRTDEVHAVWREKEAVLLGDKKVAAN
T1 sequence 2: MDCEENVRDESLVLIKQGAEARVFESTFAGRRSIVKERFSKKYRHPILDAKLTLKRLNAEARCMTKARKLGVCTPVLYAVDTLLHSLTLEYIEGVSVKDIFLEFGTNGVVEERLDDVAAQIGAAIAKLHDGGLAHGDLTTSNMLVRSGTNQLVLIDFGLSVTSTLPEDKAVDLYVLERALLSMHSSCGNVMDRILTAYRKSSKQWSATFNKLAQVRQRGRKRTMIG
T1 sequence 3: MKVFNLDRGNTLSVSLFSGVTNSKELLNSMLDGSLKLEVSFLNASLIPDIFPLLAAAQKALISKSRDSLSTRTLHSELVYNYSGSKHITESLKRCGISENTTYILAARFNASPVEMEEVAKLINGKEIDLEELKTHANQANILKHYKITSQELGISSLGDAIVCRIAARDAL
T1 sequence 4: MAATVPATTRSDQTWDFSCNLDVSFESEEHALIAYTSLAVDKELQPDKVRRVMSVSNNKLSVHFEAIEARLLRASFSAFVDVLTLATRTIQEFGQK
The experiment in a line: EMSA; 1:5 RNA:protein; MST: 20 mM PBS pH 7.5, 300 mM NaCl, 0.05% Tween 20, 25 C, 50 nM RNA; EMSA: 20 mM Tris-HCl pH 7.5, 300 mM NaCl, 5 mM b-mercaptoethanol, 20% glycerol, agarose gel in Tris-glycine pH 8.0 (8.5 for FAM-RNA), 4 C. As to conditions: protein: recombinant;recombinant;recombinant;recombinant; tags: ;none (6His on partner CGI121);6His (C-term);6His (C-term); chain copies: 2;2;2;2; label: 5' 6-FAM; tRNA cloverleaf. (In general: A gel shift assay detects complexes by their altered migration in electrophoresis.)

The next data set addresses T2, BUD32;CGI121 (Arabidopsis thaliana;Arabidopsis …, UniProt Q94K14;Q6NMZ4 1-226;1-172, |).
T2 sequence 1: T1 sequence 2
T2 sequence 2: T1 sequence 3
The experiment in a line: MST; MST: 20 mM PBS pH 7.5, 300 mM NaCl, 0.05% Tween 20, 25 C, 50 nM RNA; EMSA: 20 mM Tris-HCl pH 7.5, 300 mM NaCl, 5 mM b-mercaptoethanol, 20% glycerol, agarose gel in Tris-glycine pH 8.0 (8.5 for FAM-RNA), 4 C. To be noted: protein: recombinant;recombinant; tags: none (6His on partner CGI121);6His (C-term); copies: 1;1; label: 5' 6-FAM; tRNA cloverleaf.

Another data set deals with T3, KAE1;BUD32;PCC1 (Arabidopsis thaliana;Arabidopsis …, UniProt O49653;Q94K14;Q8GWD7 1-353;1-226;1-96, ||).
T3 sequence 1: T1 sequence 1 with F17I
T3 sequence 2: T1 sequence 2
T3 sequence 3: T1 sequence 4
The description is as above. As to conditions: protein: recombinant;recombinant;recombinant; tags: none (6His on partner PCC1);none (6His on partner CGI121);6His (C-term); chain copies: 2;2;2; label: 5' 6-FAM; tRNA cloverleaf.

Data set [2] concerns the target T4, KAE1;BUD32 N58R;CGI121;PCC1 (Arabidopsis thaliana;Arabidopsis …, UniProt O49653;Q94K14;Q6NMZ4;Q8GWD7 1-353;1-226;1-172;1-96, |N58R||).
T4 sequence 1: T1 sequence 1 with F17I
T4 sequence 2: T1 sequence 2 with N58R
T4 sequence 3: T1 sequence 3
T4 sequence 4: T1 sequence 4
The description is as above. As to conditions: protein: recombinant;recombinant;recombinant;recombinant; tags: none (6His on partner PCC1);;6His (C-term);6His (C-term); chain copies: 2;2;2;2; label: 5' 6-FAM; tRNA cloverleaf.

B1: 5'-6FAM-tRNAArgCCU (structured_RNA)
RNA: GCGCCUGUAGCUCAGUGGAUAGAGCGUCUGUUUCCUAAGCAGAAGGUCGUAGGUUCGACCCCUACCUGGCGCGCCA
Take B1: the binding result in data set [1] is reported as “binds”. The Kd with BUD32;CGI121 amounted to 61.6 ± 15 µM; with KAE1;BUD32;PCC1 it was 38 ± 13.6 µM; in data set [2], 9.81 ± 2.73 µM.
